This is an account of results in patent publication US20240400703A1 (Genmab, published 2024).

Residue numbers refer to the chain shown, from its start. Names and notes keep the numbering of the source.

Test [1] has as its target T1, mouse OX40 expressed on ExpiCHO-S cells (mouse, UniProt P47741 20-272).
T1 construct: full-length entry; also called OX40mm; wild-type mouse OX40
T1 sequence: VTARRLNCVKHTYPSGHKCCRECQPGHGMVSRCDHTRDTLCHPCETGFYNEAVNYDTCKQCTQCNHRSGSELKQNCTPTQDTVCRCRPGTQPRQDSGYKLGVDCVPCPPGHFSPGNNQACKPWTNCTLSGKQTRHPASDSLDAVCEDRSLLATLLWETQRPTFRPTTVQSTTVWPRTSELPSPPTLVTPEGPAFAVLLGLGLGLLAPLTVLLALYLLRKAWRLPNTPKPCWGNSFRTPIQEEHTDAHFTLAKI
As to the kind of experiment: not described (data not shown).

In test [2] the target is T2, human OX40 with mouse CRD3 (human with mouse CRD3, UniProt P43489 29-277).
T2 construct: on ExpiCHO-S cells; also called OX40-CRD3mm; Shuffle 3
T2 chain: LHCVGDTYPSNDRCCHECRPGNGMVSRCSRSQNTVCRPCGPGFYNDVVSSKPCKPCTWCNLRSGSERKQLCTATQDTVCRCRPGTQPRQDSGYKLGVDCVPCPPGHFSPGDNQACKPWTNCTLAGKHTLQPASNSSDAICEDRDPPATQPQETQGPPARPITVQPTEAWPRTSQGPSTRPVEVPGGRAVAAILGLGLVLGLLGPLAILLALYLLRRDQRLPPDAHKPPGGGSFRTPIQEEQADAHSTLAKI
Description: flow cytometry, transfected ExpiCHO-S cells, gMFI (PE). A general note: In flow cytometry, cells or beads pass a laser one at a time.

The target of test [3] is T3, human OX40 with mouse CRD2 (human with mouse CRD2, UniProt P43489 29-277).
T3 construct: on ExpiCHO-S cells; also called OX40-CRD2mm; Shuffle 2
T3 chain: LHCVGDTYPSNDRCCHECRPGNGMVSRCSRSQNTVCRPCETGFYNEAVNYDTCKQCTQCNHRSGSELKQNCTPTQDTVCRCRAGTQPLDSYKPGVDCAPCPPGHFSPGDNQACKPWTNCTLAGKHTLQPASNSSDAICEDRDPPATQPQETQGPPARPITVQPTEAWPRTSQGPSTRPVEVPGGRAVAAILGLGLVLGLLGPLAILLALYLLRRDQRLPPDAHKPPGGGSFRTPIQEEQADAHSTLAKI
Described as above.

Test [4] concerns the target T4, human OX40 with mouse CRD1 (human with mouse CRD1, UniProt P43489 29-277).
T4 construct: on ExpiCHO-S cells; also called OX40-CRD1mm; Shuffle 1
T4 chain: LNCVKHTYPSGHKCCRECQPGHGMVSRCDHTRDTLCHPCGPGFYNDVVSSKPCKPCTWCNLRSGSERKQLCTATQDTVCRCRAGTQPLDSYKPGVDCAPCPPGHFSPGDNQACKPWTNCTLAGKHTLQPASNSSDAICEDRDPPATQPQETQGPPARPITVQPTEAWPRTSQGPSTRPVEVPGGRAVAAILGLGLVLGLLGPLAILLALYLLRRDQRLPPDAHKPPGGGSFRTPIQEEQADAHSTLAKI
The test is described as above.

For test [5], the target named is T1, mouse OX40 expressed on ExpiCHO-S cells. The description is as above.
Test [6] addresses T5, human OX40 with mouse CRD4 (human with mouse CRD4, UniProt P43489 29-277).
T5 construct: on ExpiCHO-S cells; also called OX40-CRD4mm; Shuffle 4
T5 chain: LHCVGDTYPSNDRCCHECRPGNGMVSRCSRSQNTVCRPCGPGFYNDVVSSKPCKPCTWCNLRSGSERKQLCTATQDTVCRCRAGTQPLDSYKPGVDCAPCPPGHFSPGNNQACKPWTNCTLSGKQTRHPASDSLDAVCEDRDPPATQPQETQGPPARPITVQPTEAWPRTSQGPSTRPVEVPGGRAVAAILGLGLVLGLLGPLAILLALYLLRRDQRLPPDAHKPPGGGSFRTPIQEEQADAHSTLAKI
Described as above. On the procedure:
The four shuffle constructs, as well as wild-type human and mouse OX40 were transiently expressed on ExpiCHO-S cells using the ExpiFectamine™ CHO Transfection Kit (ThermoFisher, cat. no. A29131), according to the manufacturer's protocol. […] Next, cells were washed twice in FACS buffer 1, were resuspended in a 30 μL solution of viability marker ToPro-3 (Invitrogen, cat. no. T3605, diluted 1:10,000) in FACS buffer 1 supplemented with 2 mM EDTA, and were analyzed on an iQue Screener Plus (Intellicyt Corporation, USA). Data were analyzed using FlowJo software and visualized using GraphPad Prism.

Test [7] addresses T6, human FcγRIa expressed on cells (human, UniProt P12314 16-374).
T6 construct: whole, on cells; also called FcγR1a; CD64
As to the kind of experiment: flow cytometry, FcγRIa-expressing human monocyte-derived M2c-like macrophages, 15 min.

Test [8] has as its target T7, human OX40 expressed on cells (human, UniProt P43489 29-277).
T7 construct: also called CD134; TNFRSF4
T7 sequence: T5 chain with N109D, S122A, Q125H, R127L, H128Q, D132N, L134S, V137I
As to the kind of experiment: flow cytometry, OX40-transfected HEK293F cells, gMFI (PE). On the procedure:
(§1) Transfected cells were seeded in 96-well plates (30,000 cells/well; ThermoFisher, cat. no. 163320) for sequential incubations, with washing steps in between using fluorescence-activated cell sorting (FACS) buffer 1 (phosphate buffered saline [PBS; Lonza, cat. no. BE17-517Q] supplemented with 0.1% bovine serum albumin [BSA; Roche, cat. no. 10735086001] and 0.02% sodium azide [NaN₃; Bio-World, cat. no. 41920044-3]) supplemented with 2 mM ethylenediaminetetraacetic acid (EDTA; Sigma-Aldrich, cat. no. 03690). […] Cells were then washed using EDTA-supplemented FACS buffer 1, resuspended in a 30 μL solution of viability marker ToPro-3 (Invitrogen, cat. no. T3605, diluted 1:10,000) in EDTA-supplemented FACS buffer 1, and subsequently analyzed on an iQue® 3 flow cytometer (Satorius). Data were analyzed using FlowJo software and were visualized using GraphPad Prism.

The target of test [9] is T8, cynomolgus monkey OX40 expressed on HEK293F cells (cynomolgus monkey (Macaca fascicularis), UniProt P43489 29-277 (human entry)).
T8 construct: full-length entry
T8 chain: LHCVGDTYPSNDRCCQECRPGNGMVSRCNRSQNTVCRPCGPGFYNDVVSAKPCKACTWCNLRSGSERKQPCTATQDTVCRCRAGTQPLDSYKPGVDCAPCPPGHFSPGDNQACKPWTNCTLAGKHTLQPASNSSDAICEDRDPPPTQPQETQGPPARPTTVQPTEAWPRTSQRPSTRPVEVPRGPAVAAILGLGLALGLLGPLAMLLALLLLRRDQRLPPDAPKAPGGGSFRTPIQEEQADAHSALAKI
The test is described as above. On the procedure: as §1

T6 sequence (P12314 16-374): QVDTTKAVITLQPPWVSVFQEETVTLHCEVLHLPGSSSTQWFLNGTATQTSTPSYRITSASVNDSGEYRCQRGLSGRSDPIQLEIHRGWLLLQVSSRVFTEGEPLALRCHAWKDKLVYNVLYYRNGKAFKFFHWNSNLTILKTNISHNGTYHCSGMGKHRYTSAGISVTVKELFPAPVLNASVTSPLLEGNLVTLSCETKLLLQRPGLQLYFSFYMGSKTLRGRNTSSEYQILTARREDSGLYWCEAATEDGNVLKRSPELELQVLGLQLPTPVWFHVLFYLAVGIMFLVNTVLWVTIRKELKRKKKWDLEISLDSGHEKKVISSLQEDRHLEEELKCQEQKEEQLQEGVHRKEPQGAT

B1: IgG1-CD134-003-FEAL (antibody)
heavy: EQLKETGGGLVQPGGSLTLSCKASGFDFSSGYMSWVRQAPGKGLEWIGYIDPVFGSTYYASWVNGRFAISSHNAQNTLYLQLNSLTAADTATYFCARDLRAFYSGWGGINLWGPGTLVTVSSASTKGPSVFPLAPSSKSTSGGTAALGCLVKDYFPEPVTVSWNSGALTSGVHTFPAVLQSSGLYSLSSVVTVPSSSLGTQTYICNVNHKPSNTKVDKRVEPKSCDKTHTCPPCPAPEFEGGPSVFLFPPKPKDTLMISRTPEVTCVVVAVSHEDPEVKFNWYVDGVEVHNAKTKPREEQYNSTYRVVSVLTVLHQDWLNGKEYKCKVSNKALPAPIEKTISKAKGQPREPQVYTLPPSREEMTKNQVSLTCLVKGFYPSDIAVEWESNGQPENNYKTTPPVLDSDGSFLLYSKLTVDKSRWQQGNVFSCSVMHEALHNHYTQKSLSLSPG
light: AAVLTQTPSPVSAAVGGTVTIKCQSSQIVVNNNFLSWYQQKPGQPPKLLIYDASNLASGVPDRFSGSGSGTQFTLTISGVQSDDAATYYCLGGYDDDAENAFGGGTEVVVQRTVAAPSVFIFPPSDEQLKSGTASVVCLLNNFYPREAKVQWKVDNALQSGNSQESVTEQDSKDSTYSLSSTLTLSKADYEKHKVYACEVTHQGLSSPVTKSFNRGEC
notes: also called IgG1-CD134-003-L234F-L235E-D265A-F405L
Turning to B1, the binding result in test [1] is listed as “no binding”.

B2: IgG1-b12-RR (antibody)
heavy: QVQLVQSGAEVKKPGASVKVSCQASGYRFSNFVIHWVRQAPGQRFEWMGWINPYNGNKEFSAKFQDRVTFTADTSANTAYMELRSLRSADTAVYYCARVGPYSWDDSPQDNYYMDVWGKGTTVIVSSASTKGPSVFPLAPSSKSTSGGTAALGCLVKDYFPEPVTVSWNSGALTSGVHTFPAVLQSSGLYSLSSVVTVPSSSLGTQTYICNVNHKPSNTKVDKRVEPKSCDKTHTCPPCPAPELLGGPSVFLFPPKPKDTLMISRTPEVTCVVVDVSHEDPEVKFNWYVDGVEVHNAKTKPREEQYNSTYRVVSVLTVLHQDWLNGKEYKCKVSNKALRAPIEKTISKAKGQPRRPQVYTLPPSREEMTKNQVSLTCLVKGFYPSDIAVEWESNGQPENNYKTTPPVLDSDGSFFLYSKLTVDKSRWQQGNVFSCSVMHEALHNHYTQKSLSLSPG
VL: EIVLTQSPGTLSLSPGERATFSCRSSHSIRSRRVAWYQHKPGQAPRLVIHGVSNRASGISDRFSGSGSGTDFTLTITRVEPEDFALYYCQVYGASSYTFGQGTKLERK
notes: also called IgG1-b12-P329R-E345R
As for B2, the binding result was “no binding (tested: 50 µg/mL)” in test [2]; “no binding (tested: 50 µg/mL)” in [3]; “no binding (tested: 50 µg/mL)” in test [4]; “no binding (tested: 50 µg/mL)” in test [5]; “no binding (tested: 50 µg/mL)” in test [6]; “no binding (tested: 10 µg/mL)” in [7]. The binding result in test [8] and in [9] was “no binding (tested: 50 µg/mL)” in each case.
